Positions count from the first letter of the chain named.
B1: IL-P7-C05 (antibody, V domains shown)
VH: EVQLVESGGDLVQPGGSLKLSCAASGFTFSSYGMSWVRQTPDKRLELVATINSNGGTTYYPDSVKGRFTISRDNAKHTLYLQMSSLKSEDTAMYYCTRNEEFRRGLAYWGQGTLVTVSA
VL: DIQMIQSPASLSVSVGETVTITCRASENIYSNLAWYQQKQGKSPQLLVYAATNLADGVPSRFSGSGSGTQYSLKINSLQSEDFGSYYCQHFWGTPPWTFGGGTKLEIK
B2: IL-P6-C11 (antibody, V domains shown)
VH: EVQLQQSGPELVKPGASVRISCKTSGYTFTDYVIHWVKQNHGGSLEWIGGINRDSGGTTYNQKFQDKVTLTVDKSSNTAYMELRSLTSEDSAVYYCTKWKFPWYFDVWGAGTTVTVSS
VL: DIELTQSPAIMSASPGEKVTMTCSASSSISYMHWYQQKPGTSPKRWIYDTSKLASGVPARFSGSGSGTSYSLTISRVEAEDAATYYCQQWSSNPLTFGSGTKLEIK
B3: IL-P6-B07 (antibody, V domains shown)
VH: B2 VH with D31E
VL: B2 VL with E3V, I29V, P39S, R76S, V77M, S99A, I105L
B4: IL-P6-C08 (antibody, V domains shown)
VH: EVKLVESGGDLVKPGGSLKLSCAASGFTFSSYGMSWVRQTSDKRLEWVATISGGGRYTYYPDSVKGRFTISRDSSKNTLYLQMSSLKSEDTAMYYCVRHYDGYLDYWGLGTTLTVSS
VL: DIQMIQSPASLSASVGETVTITCRASENIYSYLAWYQQKQGKSPQLLVYNAKTLAEGVPSRFSGSGSGTQFSLKINSLQPEDFGSYYCQHHYGTPPYTFGGGTKLEIK
B5: IL-P5-B01 (antibody, V domains shown)
VH: EVQLQESGPSLVKPSQTLSLTCSVTGDSITSGSWNWIRKFPGNKLEYMGYISYSGSIYYNPSLKSRISITRDTSKNQYYLQLNSVTTEDTATYYCARGNPAWFAYWGQGTLVTVSA
VL: DIVMTQSQKFMSTSVGDRVSVTCKASQNVGTNVAWYQQKPGQSPKALIYSASYRYSGVPDRFTGSGSGTDFTLTISNVQSEDLAEYFCQQYNSYPYTFGGGTKLEIK
B6: IL-P6-D06 (antibody, V domains shown)
VH: QVQLQQSGPELVRPGVSVKISCKGSGYTFTDYAIHWVKQSHAKSLEWIGVINTYSGNTNYNQKFKGRATMTVDKSSSTAYMELARLTSEDSAIYFCARGVTYGSGYPYWYFDVWGAGTTVTVSS
VL: B5 VL
B7: IL-P7-A06 (antibody, V domains shown)
VH: QVQLQQSGPEVVRPGVSVKISCKGSGYTFTDYAMHWVKQSHAKSLEWIGIINTYNGNTNYNQKFKGKATMTVDKSSSTAYMEFARLTSEDSAIYYCARSRGPWDRYFDVWGAGTTVTVSS
VL: B5 VL with N32A, A46L, Y53N, S56T, V78M, E85D, N92S, Y96F, G100S
B8: IL-P5-C06 (antibody, V domains shown)
VH: QVQLQQSGPELVRPGVSVKISCKGSGYTFTDYAIHWAKQGHAKSLEWIGIINTYNGNSNYNQNFKGKATMTVDKSSSTAYMELTRLTSEDSAIYYCARNYGSSFNWYFDVWGQGTTLTVSS
VL: DIVLTQSPTTMAASPGEKITITCSASSSISSNYLHWYQQKPGFSPKLLIYSTSNLASGVPARFSGSGSGTSYSLTISSVEAEDAATYYCQQYSGYPLTFGAGTKLELK
B9: IL-P7-C05-H1L1 (antibody, V domains shown)
VH: B1 VH with D10G, K19R, T40A, D42G, R44G, K87R, S88A, M93V, A119S
VL: DIQMTQSPSSLSASVGDRVTITCRASENIYSNLAWYQQKPGKAPKLLVYAATNLADGVPSRFSGSGSGTDYTLTISSLQPEDFATYYCQHFWGTPPWTFGQGTKLEIK
B10: IL-P5-C06-H2L2 (antibody, V domains shown)
VH: QVQLVQSGAEVKKPGASVKVSCKGSGYTFTDYAIHWGRQAPGQGLEWIGIINTYNGNSNYAQKFQGRATMTRDTSTSTAYMELSRLRSEDTAVYYCARNYGSSFNWYFDVWGQGTTVTVSS
VL: DIQLTQSPSSLSASVGDRITITCRASSSISSNYLHWYQQKPGKAPKLLIYSTSNLASGVPSRFSGSGSGTDFTLTISSVQPEDFATYYCQQYSGYPLTFGQGTKLELK
B11: IL-P5-C06-H2L4 (antibody, V domains shown)
VH: B10 VH
VL: B10 VL with L4M, I19V, A56Q, V79L
B12: IL-P5-C06-H1L4 (antibody, V domains shown)
VH: B10 VH with G37A, R72V, T74K
VL: B10 VL with L4M, I19V, A56Q, V79L
B13: IL-P5-C06-H2L3 (antibody, V domains shown)
VH: B10 VH
VL: B10 VL with I19V, V79L
B14: IL-P5-C06-H1L1 (antibody, V domains shown)
VH: B10 VH with G37A, R72V, T74K
VL: B10 VL with L11M, A44S, F72Y
B15: IL-P5-C06-H1L3 (antibody, V domains shown)
VH: B10 VH with G37A, R72V, T74K
VL: B10 VL with I19V, V79L
B16: IL-P5-C06-H3L4 (antibody, V domains shown)
VH: B10 VH with G24A, I48M, A68V
VL: B10 VL with L4M, I19V, A56Q, V79L
B17: IL-P5-C06-H3L3 (antibody, V domains shown)
VH: B10 VH with G24A, I48M, A68V
VL: B10 VL with I19V, V79L
B18: IL-P7-C05-H4L3 (antibody, V domains shown)
VH: EVQLVESGGGLVQPGGSLRLSCAASGFTFSSYAMSWVRQAPGKGLELVAAINSNGGSTYYADSVKGRFTISRDNAKNTLYLQMSSLRAEDTAVYYCTRNEEFRRGLAYWGQGTLVTVSS
VL: B9 VL with V48I, T52S, A55Q, D56S
B19: IL-P7-C05-H2L2 (antibody, V domains shown)
VH: B18 VH with A33G, A50T, S57T
VL: B9 VL with A55Q, D56S
B20: IL-P7-C05-H4L1 (antibody, V domains shown)
VH: B18 VH
VL: B9 VL
B21: IL-P7-C05-H3L3 (antibody, V domains shown)
VH: B18 VH with A33G
VL: B9 VL with V48I, T52S, A55Q, D56S
B22: IL-P7-C05-H3L1 (antibody, V domains shown)
VH: B18 VH with A33G
VL: B9 VL
B23: IL-P7-C05-H2L1 (antibody, V domains shown)
VH: B18 VH with A33G, A50T, S57T
VL: B9 VL

target: Human B7-H3-his (human) (UniProt Q5ZPR3); assay: ELISA, antigen coated at 2 µg/mL

EC50	Binder
0.0788 µg/mL	B1
0.23 µg/mL	B2
0.132 µg/mL	B3
0.0424 µg/mL	B4
0.137 µg/mL	B5
0.174 µg/mL	B6
0.195 µg/mL	B7
0.177 µg/mL	B8

target: Human B7-H3-his (human) (UniProt Q5ZPR3); assay: ELISA, human B7-H3 at protein level (second run)

EC50	Binder
0.044 µg/mL	B1
0.053 µg/mL	B9
0.182 µg/mL	B2
0.194 µg/mL	B3
0.147 µg/mL	B10
0.223 µg/mL	B11
0.237 µg/mL	B12
0.151 µg/mL	B13
0.206 µg/mL	B14
0.164 µg/mL	B15
0.156 µg/mL	B16
0.151 µg/mL	B17
0.0395 µg/mL	B18
0.051 µg/mL	B19
0.035 µg/mL	B20
0.071 µg/mL	B21
0.026 µg/mL	B22
0.111 µg/mL	B23
0.088 µg/mL	B4
0.248 µg/mL	B5
0.233 µg/mL	B6
0.172 µg/mL	B7
0.302 µg/mL	B8

Source: US20230212294A1
